Like-named read-outs stand apart in the source and are kept apart here. One block for each binder: values may come before it.
Key:
[1] = target: scFv-4 (140_15899_5), de novo designed single-chain antibody; assay: BLI
[2] = target: scFv-2 (120_15439_2), de novo designed single-chain antibody; assay: BLI
[3] = target: scFv-1 (120_6290_1), de novo designed single-chain antibody; assay: BLI
[4] = target: scFv-2 (120_15439_2), de novo designed single-chain antibody; assay: BLI; remark: listed apart in the source
[5] = target: scFv-2 (120_15439_2), de novo designed single-chain antibody; assay: BLI; remark: listed apart in the source
[6] = target: scFv-2 (120_15439_2), de novo designed single-chain antibody; assay: BLI; remark: listed apart in the source
[7] = target: T1, dodecapeptide antigen DVFYPYPYASGS (as used in biolayer interferometry) (synthetic peptide); assay: BLI
T1 chain: DVFYPYPYASGS

[8] = target: scFv-2D10, single-chain antibody of mAb 2D10; assay: ITC
[9] = target: scFv-1 (120_6290_1), de novo designed single-chain antibody; assay: ITC

Kd [1]: 23.8 nM | kobs [1]: 0.0039 s⁻¹ | koff [1]: 0.00171 s⁻¹ | Kd [2]: 14.4 nM | kobs [2]: 0.0041 s⁻¹ | koff [2]: 0.00132 s⁻¹ | Kd [3]: 8.9 nM | kobs [3]: 0.0033 s⁻¹ | Kd [4]: 17.5 nM | Kd [5]: 2.55 nM | Kd [6]: 21.5 nM
Binder: DVFYPYPYASGS [dodecapeptide antigen … (as used in biolayer interferometry)]

Kd [7]: 3.8 nM | kon [7]: 206000 M⁻¹ s⁻¹
B1: scFv-2D10, single-chain antibody of mAb 2D10 (scFv, V domains shown)
VH: EIQLQQSGPELVKPGASVKISCKASGYSFTDYIMLWVKQSHGKSLEWIGNINPYYGSTSYNLKFKGKATLTVDKSSSTAYMQLNSLTSEDSAVYYCARKNYYGSSLDYWGQGTTLTVSS
VL: DVVMTQTPFSLPVSLGDQASISCRSSQSLVHSNGNTYLHWYLQKPGQSPKLLIYKVSNRFSGVPDRFSGSGSGTDFTLKISRVEAEDLGVYFCSQSTHVPYTFGGGTKLEIK

Kd [8]: 1 nM | stoichiometry N [8]: 1 | stoichiometry N [9]: 1
Binder: DVFYPYPYASGS [dodecapeptide antigen …, not conjugated to BSA (as used in ITC)]

— article PMC5726764 (Biotechnology and bioengineering, 2017)
